From patent US20240239855A1 (CYTOKI PHARMA, published 2024)
Numbering of substitutions follows the chain as printed. Where two headings read alike, the source gives them in different places. One block for each binder: values may come before it.

What was measured:
Assay in all cases: cell-based or functional assay
[1] = target: T1, human IL-22 receptor (human IL-22Ra and human IL-10Rb) on cells (human, UniProt Q8N6P7 16-574; Q08334 20-325)
T1 sequence (looked up) 1: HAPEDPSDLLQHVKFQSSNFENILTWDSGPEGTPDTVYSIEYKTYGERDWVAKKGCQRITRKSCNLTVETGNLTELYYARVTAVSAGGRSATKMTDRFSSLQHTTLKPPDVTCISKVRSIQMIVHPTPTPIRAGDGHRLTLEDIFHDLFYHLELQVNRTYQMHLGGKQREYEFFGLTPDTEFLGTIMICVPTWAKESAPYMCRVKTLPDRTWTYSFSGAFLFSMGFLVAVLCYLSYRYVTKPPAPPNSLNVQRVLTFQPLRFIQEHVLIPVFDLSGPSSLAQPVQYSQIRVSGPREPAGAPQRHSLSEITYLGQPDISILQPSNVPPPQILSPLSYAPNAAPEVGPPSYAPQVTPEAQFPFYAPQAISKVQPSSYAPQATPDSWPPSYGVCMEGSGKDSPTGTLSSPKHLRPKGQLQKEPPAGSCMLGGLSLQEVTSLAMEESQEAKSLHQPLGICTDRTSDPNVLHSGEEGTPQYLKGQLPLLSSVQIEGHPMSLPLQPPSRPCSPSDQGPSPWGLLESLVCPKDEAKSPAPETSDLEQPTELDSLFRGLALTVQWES
T1 sequence (looked up) 2: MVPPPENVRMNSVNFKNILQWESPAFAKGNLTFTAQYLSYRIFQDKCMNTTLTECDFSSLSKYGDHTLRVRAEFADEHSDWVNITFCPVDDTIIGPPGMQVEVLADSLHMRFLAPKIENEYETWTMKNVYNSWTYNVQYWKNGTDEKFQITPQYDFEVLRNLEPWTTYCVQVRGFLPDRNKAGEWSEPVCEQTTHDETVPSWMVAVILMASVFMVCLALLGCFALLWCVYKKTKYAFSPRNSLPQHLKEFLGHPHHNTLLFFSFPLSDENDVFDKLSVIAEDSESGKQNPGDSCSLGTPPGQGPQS

[2] = target: T1, human IL-22 receptor (human IL-22Ra and …); remark: listed apart in the source
[3] = target: T1, human IL-22 receptor (human IL-22Ra and …); remark: listed apart in the source
[4] = target: T1, human IL-22 receptor (human IL-22Ra and …); remark: listed apart in the source
[5] = target: T1, human IL-22 receptor (human IL-22Ra and …); remark: listed apart in the source
[6] = target: T1, human IL-22 receptor (human IL-22Ra and …); remark: listed apart in the source
[7] = target: T1, human IL-22 receptor (human IL-22Ra and …); remark: listed apart in the source
[8] = target: T1, human IL-22 receptor (human IL-22Ra and …); remark: listed apart in the source

B3: Comparator 17 (ligand)
chain: GPGCPISSHCRLDKSNFQQPYITNRTFMLAKEASLADNNTDVRLIGEKLFHGVSMSERCYLMKQVLNFTLEEVLFPQSDRFQPYMQEVVPFLARLSNRLSTCHIEGDDLHIQRNVQKLKDTVKKLGESGEIKAIGELDLLFMSLRNACI
EC50, BHK cell reporter gene assay (STAT3-induced luciferase) [2]: 0.09 nM | EC50, HepG2 cell assay for pSTAT3 (AlphaScreen SureFire STAT3 p-Tyr705) [5]: 12.1 nM

B4: Comparator 4 (ligand)
chain: B3 chain
modifications: C18 diacid attached through linker γGlu-OEG-OEG-C2DA-Ac to Cys 1C
EC50, BHK cell reporter gene assay (STAT3-induced luciferase) [2]: 0.48 nM | EC50, HepG2 cell assay for pSTAT3 (AlphaScreen SureFire STAT3 p-Tyr705) [5]: 10.1 nM | fold reduced potency compared to hIL-22, HepG2 cell assay for pSTAT3 [7]: 2.5 fold | fold reduction in potency compared to hIL-22, BHK cell reporter gene assay [7]: 7 fold | In vitro EC50, BHK cell reporter gene assay (STAT3-induced luciferase) [8]: 0.48 nM

B5: Comparator 6 (ligand)
chain: B3 chain
modifications: C16 diacid attached through linker γGlu-OEG-OEG-C2DA-Ac to Cys 1C
EC50, BHK cell reporter gene assay (STAT3-induced luciferase) [2]: 0.3 nM | fold reduction in potency compared to hIL-22, BHK cell reporter gene assay [7]: 4 fold | In vitro EC50, BHK cell reporter gene assay (STAT3-induced luciferase) [8]: 0.3 nM

B8: Comparator 11 (ligand)
chain: GAPISSCCRLDKSNFQQPYITNRTFMLAKEASLADQNTDVRLIGEKLFHGVSMSERCYLMKQVLQFTLEEVLFPQSDRFQPYMQEVVPFLARLSNRLSTCHIEGDDLHIQRNVQKLKDTVKKLGESGEIKAIGELDLLFMSLRNACI
modifications: C18 diacid attached through linker γGlu-OEG-OEG-C2DA-Ac to Cys 6C
EC50, BHK cell reporter gene assay (STAT3-induced luciferase) [2]: 1.24 nM

B9: Comparator 12 (ligand)
chain: APISSHCRLDKSNFQQPYITNRTFMLAKEASLCDQNTDVRLIGEKLFHGVSMSERCYLMKQVLQFTLEEVLFPQSDRFQPYMQEVVPFLARLSNRLSTCHIEGDDLHIQRNVQKLKDTVKKLGESGEIKAIGELDLLFMSLRNACI
modifications: C18 diacid attached through linker γGlu-OEG-OEG-C2DA-Ac to Cys 33C
EC50, BHK cell reporter gene assay (STAT3-induced luciferase) [2]: 0.28 nM

B10: Comparator 13 (ligand)
chain: B3 chain with N38Q, N67Q
modifications: C16 diacid attached through linker γGlu-OEG-OEG-C2DA-Ac to Cys 1C
EC50, BHK cell reporter gene assay (STAT3-induced luciferase) [2]: 0.37 nM

B12: Comparator 14 (ligand)
chain: B9 chain with A1G, C33A, Q35N, Q64N
EC50, BHK cell reporter gene assay (STAT3-induced luciferase) [2]: 0.06 nM | EC50, HepG2 cell assay for pSTAT3 (AlphaScreen SureFire STAT3 p-Tyr705) [5]: 4.73 nM | In vitro EC50, BHK cell reporter gene assay (STAT3-induced luciferase) [8]: 0.06 nM

B15: Comparator 2 (ligand)
chain: B9 chain with C33A, R95C
modifications: C18 diacid attached through linker γGlu-OEG-OEG-C2DA-Ac to Cys 95C
EC50, BHK cell reporter gene assay (STAT3-induced luciferase) [6]: 0.36 nM | Fold change EC50 compared to hIL-22, BHK cell reporter gene assay [6]: 5 fold

Further lines, results first:

EC50, BHK cell reporter gene assay (STAT3-induced luciferase) [1]: 0.07 nM | EC50, BHK cell reporter gene assay (STAT3-induced luciferase) [2]: 0.07 nM | EC50, BHK cell reporter gene assay (STAT3-induced luciferase), second laboratory [3]: 0.03 nM | EC50, BHK cell reporter gene assay (STAT3-induced luciferase), second laboratory [4]: 0.027 nM | EC50, HepG2 cell assay for pSTAT3 (AlphaScreen SureFire STAT3 p-Tyr705) [5]: 3.88 nM | EC50, BHK cell reporter gene assay (STAT3-induced luciferase) [6]: 0.07 nM
B1: native mature human IL-22 (hIL-22) (ligand)
chain: B9 chain with C33A, Q35N, Q64N

EC50, BHK cell reporter gene assay (STAT3-induced luciferase) [2]: 0.19 nM
B2: Comparator 18 (ligand)
chain: B3 chain with N38Q, N67Q

EC50, BHK cell reporter gene assay (STAT3-induced luciferase) [2]: 0.18 nM
B6: Comparator 7 (ligand)
chain: GPGSGSGSCGSGSGSAPISSHCRLDKSNFQQPYITNRTFMLAKEASLADNNTDVRLIGEKLFHGVSMSERCYLMKQVLNFTLEEVLFPQSDRFQPYMQEVVPFLARLSNRLSTCHIEGDDLHIQRNVQKLKDTVKKLGESGEIKAIGELDLLFMSLRNACI
modifications: C16 diacid attached through linker γGlu-OEG-OEG-C2DA-Ac to Cys -7C (in the N-terminal peptide)

EC50, BHK cell reporter gene assay (STAT3-induced luciferase) [2]: 0.61 nM | EC50, HepG2 cell assay for pSTAT3 (AlphaScreen SureFire STAT3 p-Tyr705) [5]: 14.9 nM
B7: Comparator 9 (ligand)
chain: B3 chain with N38Q, N67Q
modifications: C18 diacid attached through linker γGlu-OEG-OEG-C2DA-Ac to Cys 1C

EC50, BHK cell reporter gene assay (STAT3-induced luciferase) [1]: 0.06 nM | In vitro EC50, BHK cell reporter gene assay (STAT3-induced luciferase) [8]: 0.06 nM
B11: Derivative 1 (ligand)
chain: B3 chain
modifications: C16 monoacid attached through linker γGlu-OEG-OEG-εLys-αAc to Cys 1C (position 1 of hIL-22; position 4 in the sequence listing entry)

EC50, HepG2 cell assay for pSTAT3 (AlphaScreen SureFire STAT3 p-Tyr705) [5]: 6.98 nM
B13: Comparator 5 (ligand)
chain: B6 chain
modifications: C18 diacid attached through linker γGlu-OEG-OEG-C2DA-Ac to Cys -7C (in the N-terminal peptide)

EC50, BHK cell reporter gene assay (STAT3-induced luciferase) [6]: 0.23 nM | Fold change EC50 compared to hIL-22, BHK cell reporter gene assay [6]: 3 fold
B14: Comparator 1 (ligand)
chain: B9 chain with C33A, L106C
modifications: C18 diacid attached through linker γGlu-OEG-OEG-C2DA-Ac to Cys 106C

EC50, BHK cell reporter gene assay (STAT3-induced luciferase), second laboratory [4]: 0.31 nM | Fold change EC50 compared to hIL-22, BHK cell reporter gene assay, second laboratory [4]: 11 fold
B16: Comparator 19 (ligand)
chain: B9 chain with C33A, Q35N, Q64N, R95C
modifications: C18 diacid attached through linker γGlu-OEG-OEG-C2DA-Ac to Cys 95C

EC50, BHK cell reporter gene assay (STAT3-induced luciferase), second laboratory [4]: 0.085 nM | Fold change EC50 compared to hIL-22, BHK cell reporter gene assay, second laboratory [4]: 3 fold
B17: Comparator 3 (ligand)
chain: B9 chain with C33A, Q35N, Q64N, L106C
modifications: C18 diacid attached through linker γGlu-OEG-OEG-C2DA-Ac to Cys 106C

EC50, BHK cell reporter gene assay (STAT3-induced luciferase), second laboratory [3]: 0.03 nM
B18: Derivative 2 (ligand)
chain: B9 chain with A1C, C33A, Q35N, Q64N
modifications: C16 monoacid attached through linker γGlu-OEG-OEG-εLys-αAc to Cys 1C
